Molecular target: MtrD multidrug efflux pump from N. gonorrhoeae strain CR.103 (MtrD_(CR103)) (Neisseria gonorrhoeae) (UniProt Q51073)
Assay: cryo-EM structure; single-particle cryo-EM of purified MtrD_(CR103) in lipid nanodiscs (MSP 1E3D1), 2 uM, 20 mM Tris-HCl pH 7.5, 100 mM NaCl; one structure with fortuitously bound hydrolyzed ampicillin, one after incubation with 10 uM erythromycin for 2 h; C1 symmetry

## MtrD multidrug efflux pump from N. gonorrhoeae strain CR.103 (MtrD_(CR103)) (from UniProt Q51073 1-1067) (natural protein)
  stoichiometry N: 3
